# Results as given in article PMC10149453, “Three segment ligation of a 104 kDa multi-domain protein by SrtA and OaAEP1” (Journal of Biomolecular Nmr, 2022).
# T1: Ncc ligated to ZHk (P. furiosus, UniProt P58301 1-386; P58301 390-497)
# T1 construct: Rad50 of P. furiosus, aa 1-386 (from Ncc); OaAEP1 ligation scar; replaces the natural 'LGD' (N from Ncc, GL from the N-terminus of ZHk); Rad50 of P. furiosus, Zn Hook domain, aa 390-497 (from ZHk); The ZHk part is uniformly deuterated and ILVM side-chain methyl labelled (isotopes only); also called Ncc-ZHk; Ncc-ZnHk; source: OaAEP1 ligation of Ncc (E. coli) to ZHk (E. coli, deuterated minimal …)
# T1 chain: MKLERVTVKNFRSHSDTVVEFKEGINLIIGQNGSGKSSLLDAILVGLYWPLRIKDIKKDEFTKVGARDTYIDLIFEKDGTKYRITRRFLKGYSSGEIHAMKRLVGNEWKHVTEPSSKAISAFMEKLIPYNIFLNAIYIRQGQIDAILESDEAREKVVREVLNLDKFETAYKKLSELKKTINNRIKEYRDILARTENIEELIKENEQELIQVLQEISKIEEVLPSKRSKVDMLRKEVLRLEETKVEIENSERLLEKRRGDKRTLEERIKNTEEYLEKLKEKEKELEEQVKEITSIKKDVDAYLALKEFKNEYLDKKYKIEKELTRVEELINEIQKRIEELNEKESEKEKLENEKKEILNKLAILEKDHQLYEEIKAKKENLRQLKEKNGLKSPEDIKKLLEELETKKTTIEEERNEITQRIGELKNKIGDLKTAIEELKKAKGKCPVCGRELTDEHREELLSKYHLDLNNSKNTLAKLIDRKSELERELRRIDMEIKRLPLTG
# B1: Pf Rad50 C-Terminal coiled-coil-NBD (aa 503 – 882) after TEV cleavage (domain or fragment, P. furiosus)
# chain: GTVAEQIRSIEEELNVVNLEKIEKNATEYEKLLEELRTLEGRIRGLAEDLKKLAPLEKKLAALIHKKQELEKELKELNTKLESFGFKSVEDLDSKLRELEEIYKRYLTLLNSKKELEITQREIAKAKETLEMSFEELAEVEADIERIEKKLSQLKQKYNEEEYKKKREEKEELEKELARLEAQKKELEKRRDTIKSTLEKLKAEKENRERVKKEIKDLEKAKDFTEELIEKVKKYKALAREAALSKIGELASEIFAEFTEGKYSEVVVRAEENKVRLFVVWEGKERPLTFLSGGERIALGLAFRLAMSLYLAGEISLLILDEPTPYLDEERRRKLITIMERYLKKIPQVILVSHDEELKDAADHVIRISLENGSSKVEVVS
# notes: N-terminal Gly exposed by TEV cleavage; replaces residue 502 of Rad50; also called ccC; TEV-cleaved ccC; source: E. coli BL21 Codon+, co-expressed with Ncc, purified, tag removed with TEV protease; not shown: His6 (MK-HHHHHH-ENLYFQ, with TEV cleavage site), N-terminal, cleaved
# Molecular target: T1, Ncc ligated to ZHk
# Assay: co-purification on a Ni affinity column; purified ligation mixture after TEV cleavage, separated on a HisTrap HP column; a 6His tag remains only on the C-terminus of ZHk in Ncc-ZHk; unreacted products in the flowthrough, target in the elution
# Conditions: both partners purified
binder,measurement,value
B1,binding result,binds
